From patent publication US20140212436A1 come the findings set out here.

Chain of human FcγRI (human) (P12314 16-288 limits assumed): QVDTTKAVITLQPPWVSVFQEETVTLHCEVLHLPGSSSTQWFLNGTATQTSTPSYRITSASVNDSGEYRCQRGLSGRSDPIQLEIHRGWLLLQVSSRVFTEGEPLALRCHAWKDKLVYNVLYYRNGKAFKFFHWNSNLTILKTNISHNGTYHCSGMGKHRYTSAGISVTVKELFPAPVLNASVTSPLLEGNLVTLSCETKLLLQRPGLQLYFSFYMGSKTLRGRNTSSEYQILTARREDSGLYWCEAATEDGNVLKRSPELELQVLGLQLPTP
Chain of recombinant human FcγRIIb protein (human) (P31994 46-217 limits assumed): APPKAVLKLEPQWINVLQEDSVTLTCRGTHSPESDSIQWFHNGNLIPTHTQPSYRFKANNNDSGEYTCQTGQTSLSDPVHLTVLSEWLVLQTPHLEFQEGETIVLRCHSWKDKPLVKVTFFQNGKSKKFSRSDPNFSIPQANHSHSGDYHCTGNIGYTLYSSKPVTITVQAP
Chain of FcγRIIaR (human) (P12318 34-217 H167R limits assumed): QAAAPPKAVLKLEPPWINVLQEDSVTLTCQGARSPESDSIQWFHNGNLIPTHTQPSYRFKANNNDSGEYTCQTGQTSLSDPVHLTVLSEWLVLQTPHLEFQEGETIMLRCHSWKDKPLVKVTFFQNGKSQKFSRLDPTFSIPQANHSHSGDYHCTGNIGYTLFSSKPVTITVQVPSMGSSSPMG
Chain of human H131 FcγRIIa (human) (P12318 other isoform, or with tags, fused parts or gaps limits assumed): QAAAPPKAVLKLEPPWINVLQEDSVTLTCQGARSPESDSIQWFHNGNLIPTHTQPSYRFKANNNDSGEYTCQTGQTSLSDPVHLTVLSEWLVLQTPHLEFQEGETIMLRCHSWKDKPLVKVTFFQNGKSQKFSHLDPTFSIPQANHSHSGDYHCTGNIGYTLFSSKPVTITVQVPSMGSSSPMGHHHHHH

One assay addresses human H131 FcγRIIa (human) (UniProt P12318). Briefly: Biacore. In general terms: Surface plasmon resonance follows binding to a sensor surface in real time, without labels.
L235Y/S267E (antibody) returned a Fold of 0.941 and a Kd of 687 nM.

Turning to S239D/S267E/H268E (antibody), the dissociation constant (Kd) turned out to be 817 nM.

The next assay addresses human FcγRI (human) (UniProt P12314). Description: Biacore.
As for G237N/S267E (antibody), the Fold was 0.101 and the Kd stood at 3.25 nM.

L235Y/S267E (antibody) displayed a Fold of 0.00347 and an equilibrium dissociation constant (Kd) of 95 nM.

As for S239D/S267E/H268E (antibody), the Kd worked out at 0.326 nM.

G237A (antibody): the Fold is 0.0108 and the Kd turned out to be 30.5 nM.

As to G237D/S267E (antibody), the Fold came to 0.0874 and the dissociation constant (Kd) worked out at 3.77 nM.

In the case of G236N/S267E (antibody), the Fold came out at 0.0355 and the Kd stood at 9.27 nM.

In turn, A327N (antibody) returned a Fold of 0.0279 and an equilibrium dissociation constant (Kd) of 11.8 nM.

L234F (antibody) showed a Fold of 0.0362 and a dissociation constant (Kd) of 9.11 nM.

On to L235D/S267E (antibody), for which the Fold worked out at 0.00039 and the Kd turned out to be 854 nM.

Substance S267G (antibody) had a Kd of 0.626 nM.

The substance L234E/S267E (antibody) displayed a Fold of 0.131 and a Kd of 2.51 nM.

A further assay concerns the target recombinant human FcγRIIb protein (human) (UniProt P31994). Description: Biacore.
G237N/S267E (antibody): the Fold is 40.5 and the Kd turned out to be 36.2 nM.

As for L235Y/S267E (antibody), the Fold amounted to 37.2 and the dissociation constant Kd is 39.4 nM.

For the substance L234D/G236N/S267E (antibody), the Fold is 5.11 and the Kd stood at 287 nM.

Regarding L234W/G236D/S239E/S267E (antibody), the Fold is 11.4 and the dissociation constant (Kd) turned out to be 129 nM.

As to P329E (antibody), the Fold came to 0.147 and the Kd was 10000 nM.

For the substance L234Q (antibody), the Fold stood at 0.147 and the Kd was 10000 nM.

Take L234S (antibody): the Fold was determined as 0.192 and the Kd is 7640 nM.

With G236F (antibody), the Fold is 0.0147 and the dissociation constant (Kd) stood at 100000 nM.

As to S239Q (antibody), the Fold stood at 0.729 and the Kd was 2010 nM.

With L234K (antibody), the Fold came out at 0.0147 and the equilibrium dissociation constant (Kd) came out at 100000 nM.

L234V (antibody): the Fold was found to be 0.456 and the Kd is 3220 nM.

As for L235S (antibody), the Fold was determined as 0.0147 and the dissociation constant (Kd) stood at 100000 nM.

With L235R (antibody), the Fold worked out at 5.58 and the equilibrium dissociation constant (Kd) was 263 nM.

Regarding G236E/S267E (antibody), the Fold was found to be 11.4 and the Kd was determined as 129 nM.

As to G237Y (antibody), the Fold turned out to be 0.33 and the equilibrium dissociation constant (Kd) was 4450 nM.

Turning to L235Y/G236D/S267E (antibody), the Fold turned out to be 25 and the Kd is 58.7 nM.

Consider S239D/S267E/H268E (antibody), for which the Kd was 6.91 nM.

Take G236W (antibody): the Fold amounted to 0.147 and the Kd is 10000 nM.

As for G236M (antibody), the Fold was 0.147 and the Kd turned out to be 10000 nM.

For G236V (antibody), the Fold was found to be 0.0147 and the Kd is 100000 nM.

As to L234G (antibody), the Fold was found to be 0.147 and the dissociation constant Kd is 10000 nM.

Consider G237A (antibody), for which the Fold turned out to be 0.191 and the Kd was 7680 nM.

For the substance S267E/N325L (antibody), the Fold came to 31.5 and the Kd came to 46.6 nM.

For the substance G237D/S267E (antibody), the Fold came out at 17 and the equilibrium dissociation constant (Kd) stood at 86.1 nM.

Regarding G236N/S267E (antibody), the Fold was determined as 19.8 and the Kd was 74.2 nM.

As for G237V (antibody), the Fold stood at 0.147 and the Kd came out at 10000 nM.

Turning to L234P (antibody), the Fold stood at 0.0644 and the Kd stood at 22800 nM.

For L235P (antibody), the Fold turned out to be 0.00585 and the Kd amounted to 251000 nM.

For the substance L234W/S239E/S267E (antibody), the Fold is 42.3 and the dissociation constant Kd stood at 34.7 nM.

For the substance G236Q (antibody), the Fold was 0.147 and the dissociation constant Kd stood at 10000 nM.

With A327N (antibody), the Fold was found to be 0.843 and the dissociation constant (Kd) is 1740 nM.

L235H (antibody): the Fold was found to be 0.734 and the Kd was found to be 2000 nM.

With S239N (antibody), the Fold worked out at 1.45 and the Kd stood at 1010 nM.

On to A327G (antibody), for which the Fold is 0.353 and the dissociation constant Kd is 4160 nM.

Regarding L234Y (antibody), the Fold was 0.0237 and the dissociation constant (Kd) is 61900 nM.

In the case of G236R (antibody), the Fold turned out to be 0.0147 and the Kd is 100000 nM.

Take A327Q (antibody): the Fold was 0.011 and the Kd came out at 134000 nM.

Turning to G237K (antibody), the Fold is 0.0147 and the Kd amounted to 100000 nM.

As to S267E/L328H (antibody), the Fold came out at 5.17 and the Kd came out at 284 nM.

As for G237E (antibody), the Fold stood at 0.0147 and the Kd is 100000 nM.

As to G236P (antibody), the Fold was determined as 0.147 and the dissociation constant Kd was 10000 nM.

Consider D265E (antibody), for which the Fold is 0.417 and the Kd was 3520 nM.

In the case of V266D (antibody), the Fold came out at 0.147 and the dissociation constant (Kd) was 10000 nM.

Turning to L234F (antibody), the Fold turned out to be 0.409 and the equilibrium dissociation constant (Kd) is 3590 nM.

In the case of S298D (antibody), the Fold is 0.797 and the Kd was determined as 1840 nM.

G237P (antibody): the Fold was 0.0147 and the Kd was determined as 100000 nM.

In the case of L235D/S267E (antibody), the Fold came out at 16.7 and the dissociation constant Kd came out at 88.1 nM.

As to L235E (antibody), the Fold worked out at 0.55 and the Kd amounted to 2670 nM.

Regarding S267G (antibody), the equilibrium dissociation constant (Kd) stood at 1450 nM.

For the substance L234E/S267E (antibody), the Fold came to 15.1 and the Kd came to 97 nM.

L234I (antibody): the Fold is 0.108 and the Kd turned out to be 13600 nM.

As for L235N (antibody), the Fold was determined as 0.147 and the equilibrium dissociation constant (Kd) is 10000 nM.

The next assay concerns the target FcγRIIaR (human) (UniProt P12318). Description: Biacore.
For the substance G237N/S267E (antibody), the Fold came to 61.5 and the Kd amounted to 14 nM.

Consider L235Y/S267E (antibody), for which the Fold worked out at 37.5 and the Kd stood at 22.9 nM.

Consider L234D/G236N/S267E (antibody), for which the Fold is 0.728 and the Kd worked out at 1180 nM.

On to L234W/G236D/S239E/S267E (antibody), for which the Fold turned out to be 5.69 and the equilibrium dissociation constant (Kd) was 151 nM.

In the case of P329E (antibody), the Fold came out at 0.0859 and the Kd worked out at 10000 nM.

Substance L234Q (antibody) came in with a Fold of 0.0372 and a dissociation constant Kd of 23100 nM.

L234S (antibody) gave a Fold of 0.693 and a dissociation constant Kd of 1240 nM.

In turn, G236F (antibody) gave a Fold of 0.00859 and a Kd of 100000 nM.

Substance S239Q (antibody) gave a Fold of 0.853 and a Kd of 1010 nM.

With L234K (antibody), the Fold worked out at 0.00859 and the Kd worked out at 100000 nM.

In turn, L234V (antibody) returned a Fold of 0.134 and a dissociation constant (Kd) of 6420 nM.

With L235S (antibody), the Fold stood at 0.00859 and the Kd came out at 100000 nM.

As to L235R (antibody), the Fold was 1.02 and the dissociation constant (Kd) came to 838 nM.

Substance G236E/S267E (antibody) yielded a Fold of 36.5 and a dissociation constant Kd of 23.5 nM.

The substance G237Y (antibody) registered a Fold of 0.902 and a Kd of 952 nM.

For the substance L235Y/G236D/S267E (antibody), the Fold was found to be 9.67 and the Kd worked out at 88.8 nM.

In turn, G236W (antibody) gave a Fold of 0.0859 and a dissociation constant (Kd) of 10000 nM.

Substance G236M (antibody) showed a Fold of 0.0859 and a Kd of 10000 nM.

For G236V (antibody), the Fold stood at 0.106 and the Kd was 8080 nM.

L234G (antibody) registered a Fold of 0.0859 and a dissociation constant (Kd) of 10000 nM.

As to G237A (antibody), the Fold was found to be 0.704 and the Kd is 1220 nM.

Turning to S267E/N325L (antibody), the Fold amounted to 41.5 and the dissociation constant Kd came out at 20.7 nM.

In turn, G237D/S267E (antibody) yielded a Fold of 13.6 and a Kd of 63.1 nM.

With G236N/S267E (antibody), the Fold came out at 3.27 and the Kd is 263 nM.

As to G237V (antibody), the Fold is 0.0342 and the Kd came out at 25100 nM.

On to L234P (antibody), for which the Fold was 0.0141 and the Kd amounted to 60700 nM.

L235P (antibody) returned a Fold of 0.122 and a Kd of 7010 nM.

As for L234W/S239E/S267E (antibody), the Fold worked out at 98.5 and the equilibrium dissociation constant (Kd) was 8.72 nM.

Consider G236Q (antibody), for which the Fold turned out to be 0.0859 and the dissociation constant Kd came to 10000 nM.

Regarding A327N (antibody), the Fold was 0.609 and the equilibrium dissociation constant (Kd) is 1410 nM.

For the substance L235H (antibody), the Fold was found to be 0.756 and the Kd amounted to 1140 nM.

For S239N (antibody), the Fold came out at 0.867 and the Kd is 990 nM.

Substance A327G (antibody) yielded a Fold of 0.319 and a dissociation constant Kd of 2690 nM.

L234Y (antibody): the Fold was determined as 0.0511 and the dissociation constant (Kd) stood at 16800 nM.

On to G236R (antibody), for which the Fold worked out at 0.00859 and the dissociation constant (Kd) turned out to be 100000 nM.

A327Q (antibody) displayed a Fold of 0.634 and a dissociation constant (Kd) of 1350 nM.

Take G237K (antibody): the Fold was 0.00859 and the Kd was 100000 nM.

With S267E/L328H (antibody), the Fold was found to be 4.64 and the Kd amounted to 185 nM.

G237E (antibody) returned a Fold of 0.00859 and a Kd of 100000 nM.

On to G236P (antibody), for which the Fold is 0.0859 and the Kd stood at 10000 nM.

With D265E (antibody), the Fold amounted to 0.307 and the Kd came out at 2790 nM.

With V266D (antibody), the Fold is 0.704 and the Kd was found to be 1220 nM.

Take L234F (antibody): the Fold turned out to be 0.228 and the Kd stood at 3760 nM.

As for S298D (antibody), the Fold amounted to 1.45 and the Kd came out at 592 nM.

Substance G237P (antibody) had a Fold of 0.00859 and a Kd of 100000 nM.

The substance L235D/S267E (antibody) returned a Fold of 13 and a Kd of 66.1 nM.

For L235E (antibody), the Fold came to 0.333 and the Kd came out at 2580 nM.

S267G (antibody) displayed an equilibrium dissociation constant (Kd) of 517 nM.

Substance L234E/S267E (antibody) registered a Fold of 10.7 and a Kd of 80.4 nM.

Substance L234I (antibody) came in with a Fold of 0.0554 and a Kd of 15500 nM.

Take L235N (antibody): the Fold worked out at 0.0356 and the equilibrium dissociation constant (Kd) worked out at 24100 nM.

In general, Kd refers to the free concentration of one partner at which half of the binding sites on the other are occupied at equilibrium, for simple one-to-one binding.
